Results: patent US6852907

Molecular target: T1, BV1 movement protein, untagged (tomato leaf curl virus (New Delhi)) (UniProt A0A143TU21)
T1 sequence: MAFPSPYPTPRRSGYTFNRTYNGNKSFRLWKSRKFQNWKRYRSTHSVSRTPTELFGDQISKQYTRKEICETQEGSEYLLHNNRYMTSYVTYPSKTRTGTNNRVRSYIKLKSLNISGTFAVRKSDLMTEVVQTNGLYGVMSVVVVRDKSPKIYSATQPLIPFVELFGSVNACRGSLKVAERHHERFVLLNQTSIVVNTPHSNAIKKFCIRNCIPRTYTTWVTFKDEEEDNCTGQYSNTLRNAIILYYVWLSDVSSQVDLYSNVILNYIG
Assay: cell_activity
Settings: ssDNA accumulation in BY2 protoplasts (indirect), range 50-121

Question: “ToLCV-Nde A component viral ssDNA (CP-replacement constructs)” was tested. Which binding signal (% of wild type ssDNA) did it give?
Answer: 86
